Legend:
Type in all cases: cell-based, human
MCF-10A cells = assay: flow cytometry for EpCAM/CD49f, ALDH (Aldefluor) and CD24/CD44 after inducible lentiviral microRNA over-expression; conditions: for ALDH-positive CSC population / CD24−CD44+ population: expression of the microRNA in MCF10A cells and several cancer cell lines
Description: Cells were transduced with pTRIPZ-microRNA-RFP lentiviruses with inducible systems and selected with puromycin, and microRNAs were induced with or without (CONTROL) Doxycycline and analyzed for RFP, EpCAM and CD49f.
(§1) Furthermore, forced over-expression of mir-100 or mir-221 increased the proportion of EpCAM^−CD49f^+ cells in non-transformed MCF-10A cells as well as primary normal human mammary cells isolated from reduction mammoplasty specimens. […] This was followed by an EMT/MET transition in the Aldefluor-positive CSC population. Since TGFβ is a major regulator of EMT, abrogation of this signaling pathway may facilitate MET.
Of interest, it has been recently reported that the mir106b-25 cluster including mir-93 is induced in the early stages of nuclear reprogramming of fibroblasts into IPS cells. This is accompanied by an EMT to MET conversion in these cells which is obligatory for reprogramming to occur.
(§2) A TET on/off inducible system was established to over-express microRNAs in a lentiviral vector tagged with RFP. Utilizing this system, it was shown that forced over-expression of mir-93 increases the proportion of EpCAM^+CD49f^+ and ALDH^+ cells (FIG. 5). […] Furthermore, forced over-expression of mir-100 increased the proportion of EpCAM^−CD49f^+ cells (FIG. 5).

SUM159 cells [1] = assay: induction of MET and EMT/MET marker expression in the ALDH-positive CSC population after mir-93 induction; conditions: induction of the microRNA in EMT SUM159 cells
Description: as §1, §2

TGFβR2 = assay: TGFβ signaling after mir-93 induction; conditions: by targeting TGFβR2; effect seen within twelve hours of induction
Description: as §1

SUM159 cells [2] = assay: in vitro matrigel invasion assay; conditions: microRNA induced with Doxycycline vs control; serum as attractant
Description: The invasive capability of pTRIPZ-mir-93-RFP cells or pTRIPZ-mir-100-RFP cells with or without (CONTROL) Doxycycline was assessed by matrigel invasion assay. […] were plated in Matrigel and serum was utilized as the attractant.
as §2
Assays were done in triplicate in invasion chambers pre-coated with reduced growth factor matrix from BD Biosciences. Cells were added to the upper chamber in […] of serum-free medium. For the invasion assay, 20,000 cancer cells were seeded on the coated chamber, and the lower chamber was filled with […] of medium (Cambrex) with FBS. After 37 hours of incubation, the cells on the underside of the upper chambers were stained with the blue stain in the Cell Invasion Assay Kit (Chemicon; cat. #ECM550) and counted using light microscopy.

[3] = forced over-expression of the microRNA, MCF-10A and primary normal human mammary cells
[4] = forced over-expression of the microRNA

Molecule	ALDH-positive CSC population (MCF-10A cells)	CD24−CD44+ population (MCF-10A cells)	proportion of EpCAM−CD49f+ cells (MCF-10A cells; [3])	MET in the ALDH-positive CSC population (SUM159 cells [1])	expression of E-Cadherin and Claudin (SUM159 cells [1]; ALDH-positive CSC population)	expression of mesenchymal genes (vimentin, N-Cadherin, Twist) (SUM159 cells [1]; ALDH-positive CSC population)	TGFβ signaling (TGFβR2)	proportion of EpCAM+CD49f+ and ALDH+ cells (MCF-10A cells; forced over-expression of the microRNA (TET inducible lentiviral vector), MCF-10A and primary normal human mammary cells)	cell invasion (SUM159 cells [2])	ALDH+ CSC population (MCF-10A cells; [4])	proportion of CD24−CD44+ CSC cells (MCF-10A cells; [4])
mir-221: microRNA (SEQ ID NO:3), forced over-expression in mammary cells (nucleic acid, listed as Homo sapiens) TGAACATCCAGGTCTGGGGCATGAACCTGGCATACAATGTAGATTTCTGTGTTCGTTAGGCAACAGCTACATTGTCTGCTGGGTTTCAGGCTACCTGGAAACATGTTCTC	decrease	increase	increased								
mir-93: microRNA (SEQ ID NO:1) over-expressed from a doxycycline-inducible pTRIPZ lentiviral vector tagged with RFP (nucleic acid, listed as Homo sapiens) CTGGGGGCTCCAAAGTGCTGTTCGTGCAGGTAGTGTGATTACCCAACCTACTGCTGAGCTAGCACTTCCCGAGCCCCCGG				induces an MET	increased expression	down-regulation	inhibits TGFβ signaling	increases	decreased cell invasion		
mir-100: microRNA (SEQ ID NO:2) over-expressed from a doxycycline-inducible pTRIPZ lentiviral vector tagged with RFP (nucleic acid, listed as Homo sapiens) CCTGTTGCCACAAACCCGTAGATCCGAACTTGTGGTATTAGTCCGCACAAGCTTGTATCTATAGGTATGTGTCTGTTAGG	decrease	increase	increased						increased cell invasion	decrease	increase

Reference: patent publication US9352039B2, “Method of reducing the number of EMT and MET type breast cancer stem cells” (The Regents of the University of Michigan, priority 2012, dated 2016)
